Here are results for 1 molecule from patent US20140186359A1 (TORAY INDUSTRIES, published 2014).

Assay [1] concerns the target T1, human CAPRIN-1 expressed on the surface of human cancer cells (human, UniProt Q14444 2-709).
T1 construct: Endogenous CAPRIN-1 of human cancer cell lines or tissues; also called CAPRIN-1 proteins on the cell membrane surface
T1 sequence: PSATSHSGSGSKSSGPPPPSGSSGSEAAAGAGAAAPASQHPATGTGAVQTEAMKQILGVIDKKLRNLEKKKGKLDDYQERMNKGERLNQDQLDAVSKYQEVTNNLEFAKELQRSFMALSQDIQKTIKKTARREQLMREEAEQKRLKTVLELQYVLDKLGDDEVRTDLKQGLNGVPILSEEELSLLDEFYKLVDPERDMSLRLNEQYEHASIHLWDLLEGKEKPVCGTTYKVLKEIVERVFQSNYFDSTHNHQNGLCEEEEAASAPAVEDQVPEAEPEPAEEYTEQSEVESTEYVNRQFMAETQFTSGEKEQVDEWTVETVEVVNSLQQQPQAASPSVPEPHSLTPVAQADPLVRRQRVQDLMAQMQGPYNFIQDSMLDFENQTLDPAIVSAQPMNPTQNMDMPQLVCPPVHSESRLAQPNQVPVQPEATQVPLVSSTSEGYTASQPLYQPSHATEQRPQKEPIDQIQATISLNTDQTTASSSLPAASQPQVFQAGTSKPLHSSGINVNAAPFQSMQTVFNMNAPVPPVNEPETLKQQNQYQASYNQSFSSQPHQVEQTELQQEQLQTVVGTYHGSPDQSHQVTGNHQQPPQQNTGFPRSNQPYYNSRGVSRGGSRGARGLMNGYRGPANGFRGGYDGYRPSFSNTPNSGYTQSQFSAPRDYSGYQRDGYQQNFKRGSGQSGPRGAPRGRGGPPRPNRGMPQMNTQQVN
Nature of the assay: flow cytometry on the listed human cancer cell lines, culture supernatant, against secondary antibody only. As for the experimental part:
10⁶ cells of each cell line were centrifuged in each 1.5-ml microcentrifuge tube. Each culture supernatant (100 μl) containing any of the antibodies #1, #2, and #3 and the chicken monoclonal antibodies #1, #2, #3, and #4 was added to the tube and left to stand for 1 hour on ice. After washing with PBS, FITC-labeled goat anti-mouse IgG (H+L) antibodies (manufactured by Jackson ImmunoResearch Laboratories, Inc.) diluted with PBS containing 0.1% FBS for the mouse-derived antibodies or FITC-labeled goat anti-chicken IgG (H+L) antibodies (manufactured by SouthernBiotech) diluted 100-fold with PBS containing 0.1% FBS for the chicken-derived antibodies were added thereto and left to stand at 4° C. for 30 minutes. After washing with PBS, the fluorescence intensity was measured using FACSCalibur (Becton, Dickinson and Company). The negative control used was cells reacted only with secondary antibodies. As a result, all the cells each treated with any of the antibodies #1, #2, and #3 and the chicken monoclonal antibodies #1 to #4 had fluorescence intensity at least 35% stronger than that of the negative control. […] The rates of enhancement in the fluorescence intensity was expressed as the rates of increase in mean fluorescence intensity (MFI) in respective cell lines, which are calculated according to the following formula.

Assay [2] addresses T2, partial CAPRIN-1 polypeptide consisting of the amino acid sequence of SEQ ID NO: 5 (human).
T2 construct: Peptide coupled to Immobilizer Amino ELISA plate
T2 peptide: VFNMNAPVPPVNEPETLK
Briefly: peptide ELISA, culture supernatant. How it is done:
The obtained mouse monoclonal antibodies #2 and #3 were examined for their specific reaction with the amino acid sequence of SEQ ID NO: 5 as a partial CAPRIN-1 sequence used as an immunogen. A 30 μg/ml solution of the amino acid sequence of SEQ ID NO: 5 prepared with a 0.1 M aqueous sodium carbonate solution and a partial CAPRIN-1 sequence free from the amino acid sequence of SEQ ID NO: 5 were each added to a 96-well plate Immobilizer Amino for ELISA (Nunc) at […] and reacted for one whole day and night at 4° C. to bind the peptides to the wells. A 0.1 M aqueous sodium carbonate solution containing 10 mM ethanolamine was added to the peptide-bound wells and left to stand at room temperature for 1 hour. The solution in each well was removed, and each well was then washed with PBS-T. Then, a Blockace solution was added thereto at 400 μl/well and left to stand at room temperature for 3 hours. The solution in each well was removed, and each well was washed with PBS-T. Then, the culture supernatant containing the mouse monoclonal antibody #2 was added thereto at […] and reacted at room temperature for 1 hour. […] The absorbance was measured at 450 nm and 595 nm using an absorption spectrometer.
A general note: In an ELISA, binding on a coated surface is turned into a signal by an enzyme label.

Where only a bound is given, the exact number is not on record here.

B1: mouse monoclonal antibody #3 (antibody, V domains shown)
VH: GGGLVKPGGSLKLSCAASGFTFSSYGMSWVRQTPEKRLEWVATISSGGSYTYYPDSVKGRFTISRDNAKNTLYLQMSSLRSEDTAMYYCASLASYYFDYWGQGTTLTVSS
VL: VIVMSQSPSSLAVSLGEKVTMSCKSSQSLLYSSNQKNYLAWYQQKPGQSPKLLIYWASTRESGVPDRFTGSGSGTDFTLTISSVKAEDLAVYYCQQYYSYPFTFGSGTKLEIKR
notes: Mouse hybridoma antibody; detected with anti-mouse IgG; also called anti-CAPRIN-1 monoclonal antibody #3
Take B1: the “rate of increase in mean fluorescence intensity” value in assay [1] is at least 35%. Also, the binding result in assay [2] is listed as “binds”.
